According to the supplement of paper PMC12042874:
± gives the uncertainty stated by the source.

Experiment: amyloid nucleation score (Sup35N fusion, yeast selection) (log enrichment); library NNK1; higher = more nucleation; inactive = no reads after selection
Procedure, shortened: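 The nucleation score is the log enrichment of output over input reads, calculated with DiMSum and centred on the mode score of non-aggregating sequences. Sequences with under 100 input reads were excluded. Reads came from Illumina sequencing of plasmid inserts from psi-negative yeast expressing Sup35N fused to peptides of 20 random codons, induced 24 hours with 100 μM copper sulfate and grown 7 days at 30°C without adenine and uracil.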

Substance	amyloid nucleation score
QVRGSASYSVHWINELFFKQ	1.64 ± 0.32
QVSANSKNKSVVLFQIKSNE	-0.17 ± 0.4
QVTRYYGGNAVR	1.59 ± 0.57
QVWWDVNEPPDLTPQGSRWG	inactive
QVYLILTEMRMTF	1.4 ± 0.13
QWGRMPMFLIDRTGGWASMG	0.409 ± 0.32
QWRFKVRVHVEVSSSGVCSI	inactive
QYSRLESLLM	0.483 ± 0.39
RAAKF	-1.15 ± 0.58
RACGYYCKSLCPGCKTCLSR	0.005 ± 1.7
RAGQVRNNDTSVEFAMCGRW	0.355 ± 0.38
RAIIGFSLSQRGYLPNTDLR	3.1 ± 0.095
RARLNRFVICVSLDMLVLWM	-0.709 ± 0.45
RARWDPFLMCYLTVVWTSFV	-0.12 ± 0.29
RASDRSSIMICF	0.382 ± 1.4
RATQLF	1.81 ± 0.67
RAVRVMRLSSGLSLGRPSDW	inactive
RCGFSLNFC	3.2 ± 0.097
RCGLWV	-0.217 ± 0.78
RCGSPSAHNSIYMR	1.34 ± 0.32
RCKFESVKRVS	1.42 ± 0.54
RCLVFTLKRV	0.358 ± 0.61
RCMMPYGESKSGVLMGRYSY	0.393 ± 0.31
RCTGLRLRVLGAILIFIHYV	inactive
RCYFAWPEWLGYGCVVMERG	-0.435 ± 0.52

Substance	amyloid nucleation score
RCYKSLVGMNTHKSAAVVER	0.011 ± 0.27
RCYSVRCTFQVDYARIHANE	1.99 ± 0.17
RDDDPYVQDRPLRDFVFKKY	-0.472 ± 0.35
RDPYFRQCTEKQI	1 ± 0.85
RDVCLQSGMVVFYF	6.905 ± 0.061
RDWKSFSVCVFLIFIACNTG	-0.605 ± 0.4
RECFRQANFCFMGLSTLGKS	-0.88 ± 0.79
REEAVSVGHSRFGFWIVFGG	-0.264 ± 0.36
REGNVSYYSFGL	-1.48 ± 1.4
RELNSRPVFYLLGMDQSIGA	4.43 ± 0.14
REPIYFSVSMIWGTLASPVT	-0.447 ± 0.98
RERVISVWGL	-0.197 ± 0.45
RETIPCVEVFTHRSLDFL	1.15 ± 0.83
REVSMRDGGPVT	0.298 ± 0.54
REVSVVNLYRCFDGIRSKLT	0.219 ± 0.23
REWSSYRIVRWYEMCYISTS	-0.158 ± 0.84
RFARHCSRIS	0.769 ± 0.36
RFEWLCGVFSGALPKGAWLK	-0.144 ± 0.37
RFFGFS	-0.63 ± 1.1
RFFISYTFSWPRYLVGKDLL	-0.936 ± 0.34
RFFNTRSGKSWPLKYLTEFF	0.042 ± 0.34
RFFYWG	0.375 ± 1.2
RFILPVVGSSHLINSLADSL	-0.8 ± 1.4
RFIWFLVYVNTCYARC	2.86 ± 0.25
RFIYE	-0.543 ± 0.82

Substance	amyloid nucleation score
RFLTGCICAQSLRQLTS	-0.075 ± 0.48
RFMKPTMVWL	0.005 ± 1.4
RFMSTSLFLMVSNELLSPLM	1.27 ± 0.16
RFMTHLVRRLYAFGMSF	inactive
RFQGGWSRF	3.68 ± 0.11
RFRNGLNLFRMSNMFSNLKH	-0.129 ± 1.1
RFRVEGPMYFICICKRLFTY	-0.555 ± 0.44
RFVIVEVSWLDSLLRLSWED	0.277 ± 0.99
RFVLKYSSFFMFTIRWCVVV	-0.027 ± 0.44
RFYIGIVIQRTYGRC	2.79 ± 0.071
RGEILCWWIGFYFVAVK	0.149 ± 0.32
RGGGAEKLLQSTCNSYVVWL	3.66 ± 0.061
RGGNLSRAFNYVRYIITHKN	0.145 ± 0.46
RGILNRVTLILDLRVHSSSD	0.504 ± 0.32
RGITNCVQCPVIPWFLRYYG	-0.401 ± 0.31
RGRDHCYTTDWNGYRVMVPL	0.58 ± 0.51
RGSTLSGVYCAENRASGFDS	0.93 ± 0.33
RGSVIWRRRWTTESWSSYFG	1.25 ± 0.72
RGYMCHCRVVSACFLYRKVQ	-0.044 ± 0.25
RGYQNSLFTGMRRSSGSWSI	0.43 ± 0.77
RGYSSTPRFVNIACYMVQSL	2.45 ± 0.26
RHADIWSDFPR	1.53 ± 0.7
RHFRMGRHRFEGWVLTGASG	0.194 ± 0.38
RHKYMWM	1.46 ± 0.81
RHRDLGWRVIRWRAFMTSLW	-1.31 ± 2.1

Substance	amyloid nucleation score
RHWDIRSGHNLWQMVG	-0.55 ± 0.38
RIFFYTISYPLILIKVFCYL	inactive
RIGGETGCV	0.216 ± 0.27
RIHRVHRKF	-0.33 ± 0.38
RIIITLH	0.264 ± 0.31
RIILGETGAALWWRI	4.61 ± 0.079
RIISRCFVMDVWFERQYVTR	1.96 ± 0.18
RIKYAWFCVFGTWNRIRVRI	1.1 ± 0.68
RILCHLTNRWFEFDEVLVGV	0.835 ± 0.48
RILRDQTWIPSMATDSILVC	-1.23 ± 0.79
RIMMMGQLTFVYMGQHSSMV	-0.062 ± 0.57
RINVYII	3.25 ± 0.19
RISYTDCMVEQLHPNQLWQN	-0.069 ± 0.52
RIWSLRPFRSEYLRVCFFVS	0.437 ± 0.78
RIYLRFYLIIR	1.07 ± 0.85
RKALYA	-0.117 ± 0.38
RKFVC	-0.729 ± 1.7
RKRSSRVIDVTGRWAVLTYP	0.074 ± 0.46
RKSEGIDVCGYNISAIYFKC	0.142 ± 0.64
RKYQQGSLHDSGIKNHFFRV	-0.97 ± 1.7
RLASMREHLVWYRRGFRVCC	0.725 ± 0.58
RLCAINHPLCTFSQTMAWVH	0.272 ± 0.29
RLFPYQFM	-0.286 ± 0.63
RLFWLRNLPLWASYK	0.07 ± 0.47
RLGCGSM	0.769 ± 0.45

Substance	amyloid nucleation score
RLGPYSATWFVGKGKREGGV	0.571 ± 0.55
RLHMRRRPFVNTHVS	0.54 ± 0.42
RLHSS	-0.036 ± 0.32
RLIHRPVWV	0.526 ± 0.48
RLKHDWWITVCLYRVQLNTV	1.59 ± 0.55
RLLLYG	inactive
RLLRPFGWLANSRLTTVWFH	-0.122 ± 0.68
RLLWRWWRAVDVRGHDRLNL	-0.306 ± 1.2
RLNLSLSVR	0.517 ± 0.55
RLNNLWKFDEVLLGSSNRTR	-1.24 ± 0.44
RLNNRRFLSWRCTNNQCWRV	-0.159 ± 0.86
RLNWVYSRNNASLSGVYMKR	0.116 ± 0.24
RLRDTNVYTTQFFVFYLMNW	6.677 ± 0.051
RLSLTINFGNKFRCITGQFD	4.01 ± 0.091
RLSSSCSSAEDWYRKGHLLK	-0.063 ± 0.4
RLSYISPPSVYLALSRSRMD	0.229 ± 0.75
RLVKSEDSNKNGLDLCRYEL	0.753 ± 0.56
RLWSRPSS	1.14 ± 0.79
RLYFRSSYDCDETRWKEKYM	0.049 ± 0.38
RLYNLTSVRKFVLLSSM	0.235 ± 0.4
RMEQSCWMTSECRRWKGVWL	0.827 ± 0.44
RMFPCYIAV	0.015 ± 0.27
RMLCYEFCCLNLDVGIYCAS	inactive
RMLDY	0.318 ± 1.2
RMSLLYLSSVKLFNWHAALG	-0.465 ± 0.6

Substance	amyloid nucleation score
RNDHSRDHPFLDISWVCLGQ	0.58 ± 1.2
RNDTSDVYGSSGRSNRP	0.007 ± 0.37
RNFCSSEGPSRHERLCNTKR	-0.542 ± 0.68
RNGPSWYSAIPY	inactive
RNHDANFPCRVDGPLQSTVR	0.135 ± 0.4
RNLYQFM	0.203 ± 0.27
RNSSGRGERLLVQYAQKKKR	-0.136 ± 0.41
RNWDMGHKQP	2.66 ± 0.12
RNWLLDTNSLQVMSPYIFEV	-0.41 ± 0.74
RNYTVKKMNLC	inactive
RPGVNLWVLFVTMQTPEIRL	3.01 ± 0.11
RPLALRVQDSPKSFGQSP	0.145 ± 0.7
RPLFIMSLFRGWRRIKLHGS	-0.527 ± 0.49
RPLRCWAIHYGQVYDSSAIL	0.987 ± 0.62
RPMYHGYHMH	0.483 ± 0.38
RPRHIFDNSKVYNMGPYFYD	1.59 ± 0.56
RPRICLWWSLNQMDVWNRDR	2.17 ± 0.31
RPSITNRPC	0.735 ± 0.83
RPTGLDILS	3.56 ± 0.1
RPYGVNR	-0.271 ± 0.66
RQDARE	0.004 ± 0.42
RQLFIGGAPDLC	0.216 ± 0.59
RQNGRKDPGNVKRGITCR	0.066 ± 0.38
RQQMTRTCVNDGS	-1.02 ± 2.4
RQSQRWYFLLCGYYKAFFRR	1.63 ± 0.73

Substance	amyloid nucleation score
RREFYFLLVIALKSV	1.32 ± 0.31
RRGVV	0.659 ± 0.93
RRGVYSKVFAENHVLCMLSL	4.01 ± 0.067
RRHWTVMVMNIPVGMFIVIR	0.155 ± 0.27
RRILGRYRC	-0.129 ± 1.1
RRLFMGPI	0.802 ± 1
RRNVYFYVWYVSPNVMKYSN	3.84 ± 0.1
RRPENKCYHPLVCDFVAVWF	0.476 ± 1.1
RRRASGHRASY	-0.52 ± 0.39
RRRHWVSSAGGKRRHLVFCA	1.22 ± 0.46
RRRRSDKDVYPFQSFMFNVV	0.476 ± 0.3
RRRYGRWMLCCCVVWV	-0.147 ± 0.37
RRSESCMFYVMWYGNRYLEG	0.638 ± 0.18
RRSWVFFVDWFIFVCLCVNG	inactive
RRVLSRGSAVSWALSSGGD	-0.586 ± 0.46
RRVTCGLQGVLRENR	0.4 ± 0.46
RRYCDTTVFHGYSVSCRAYG	-0.842 ± 0.74
RRYHGGDWSLLVNQLN	0.374 ± 0.23
RSCLDGSRVMVSWR	0.305 ± 0.46
RSDVVVFHQLS	-0.257 ± 1.7
RSDYVNDGEYWAFRDRMMNM	-0.126 ± 0.35
RSEYAPRTNYK	-0.237 ± 0.48
RSFCRSSVIFVFP	2.79 ± 0.19
RSFWYDHGIRVGLRLYNCSM	inactive
RSHHIWGY	0.353 ± 0.48
